In patent US20220017622A1 (Pfizer, published 2022):

How the values were obtained:
[1] = biological target: T1, human B7-H4 extracellular domain (human, UniProt Q7Z7D3 29-258); test: SPR Biacore 8K 25 C; mAb captured on anti-human Fc, huB7-H4 ECD analyte, 1:1 fit;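 also: antibodies tested as IgG1, running buffer HBS-EP+ at pH 7.4, rate constants and affinity from a 1:1 Langmuir model fit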
T1 construct: For SPR it says only human B7-H4 ECD; also called Hu B7-H4 ECD; huB7-H4 ECD
T1 sequence: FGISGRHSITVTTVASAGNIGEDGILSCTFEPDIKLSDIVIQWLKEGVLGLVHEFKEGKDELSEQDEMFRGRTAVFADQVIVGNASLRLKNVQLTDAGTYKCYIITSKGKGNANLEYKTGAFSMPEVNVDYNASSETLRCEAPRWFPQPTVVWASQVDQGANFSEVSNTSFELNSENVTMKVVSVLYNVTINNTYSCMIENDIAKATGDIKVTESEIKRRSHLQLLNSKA

[2] = biological target: T1, human B7-H4 extracellular domain; test: competition ELISA on coated huB7-H4 ECD; competitor biotinylated 0052 (by series, not given); second value of the fourth IC50 column
[3] = biological target: T1, human B7-H4 extracellular domain; test: competition ELISA on coated huB7-H4 ECD; competitor biotinylated 0052 (by series, not given); first of the four IC50 [nM] columns; competitor not given

- Kd [1]: 3.79 nM
- koff [1]: 0.000635 s⁻¹
- kon [1]: 168000 M⁻¹ s⁻¹
- IC50 [2]: 1 nM
- IC50 [3]: 4.8 nM
B1: B7-H4 antibody 0047 (antibody, human IgG1, kappa, V domains shown)
VH: QVQLQQWGAGLLKPSETLPLTCAVYGGSFSGYYWNWIRQPPGKGLEWIGEINHSGSATYNPSLKSRVTISVDTSKNHFSLKLSSVTAADTAVYFCARGLYNWNVDHWGQGTLVTVSS
VL: DIQMTQSPSSLSASVGDRVTITCRASQGIRNDLGWYQQKPGKAPKRLIYAASSLQSGVPSRFSGSGSGTEFTLTISSLQPEDFATYYCLQHNSYPRTFGGGTKVEIKR
notes: also called 7H7
